Test results taken from publication PMC4140816 (PLoS ONE, 2014).
Ends that are not written are not given here.

B1: VSL12 peptide (peptide)
peptide: VSLARRPLPPLP
modifications: also: biotin (site not given here)
notes: Biotinylated for immobilisation in SPR; source: synthetic peptide (University of Pittsburgh Peptide Synthesis Core)
B2: Lyn SH3 domain (domain or fragment)
chain: EQGDIVVALYPYDGIHPDDLSFKKGEKMKVLEEHGEWWKAKSLLTKKEGFIPSNYVAKLNT

Tests used:
c-Src SH3 domain [1] = target: T1, c-Src SH3 domain (human, UniProt P12931-1 81-142); experiment: SPR; Biacore 3000; biotinylated VSL12 immobilised to 80 RU on a streptavidin chip; domain proteins flowed in duplicate at 25°C in HBS-EP (10 mM HEPES pH 7.4, 150 mM NaCl, 3 mM EDTA, 0.05% P20); 180 s association, 300 s dissociation; double referenced; kinetic fit, 1:1 Langmuir model; conditions: both partners purified
T1 construct: human c-Src, SH3 domain, residues 81-142; Cloned into pET21a through NdeI and XhoI; source: E. coli Rosetta 2(DE3)pLysS, purified (anion exchange, IMAC, SEC)

c-Src SH3 domain [2] = target: T1, c-Src SH3 domain; experiment: SPR; same runs as a1 (biotinylated VSL12 on a streptavidin chip, 25°C, HBS-EP); equilibrium responses against analyte concentration, steady state model; conditions: both partners purified
Lyn-YEEI = Lyn-YEEI (human, phosphotyrosine in the C-terminal tail (pTyr-Glu-Glu-Ile-Pro)); experiment: cell-based or functional assay
Fyn-YEEI = Fyn-YEEI (human, phosphotyrosine in the C-terminal tail (pTyr-Glu-Glu-Ile-Pro)); experiment: cell-based or functional assay
VSL12 peptide [3] = target: B1; experiment: SPR; Biacore 3000; biotinylated VSL12 immobilised to 80 RU on a streptavidin chip; domain proteins flowed in duplicate at 25°C in HBS-EP (10 mM HEPES pH 7.4, 150 mM NaCl, 3 mM EDTA, 0.05% P20); 180 s association, 300 s dissociation; double referenced; kinetic fit, 1:1 Langmuir model; conditions: both partners purified
VSL12 peptide [4] = target: B1; experiment: SPR; same runs as a1 (biotinylated VSL12 on a streptavidin chip, 25°C, HBS-EP); equilibrium responses against analyte concentration, steady state model; conditions: both partners purified

Kd (c-Src SH3 domain [1]) [nM]	Kd (c-Src SH3 domain [2]) [nM]	Kact: VSL12 concentration at half-maximal activation of kinase activity (ADP Quest kinetic kinase assay, VSL12 0.1 to 300 µM, basal rate subtracted) (Lyn-YEEI) [µM]	Kact: VSL12 concentration at half-maximal activation of kinase activity (ADP Quest kinetic kinase assay, VSL12 0.1 to 300 µM, basal rate subtracted) (Fyn-YEEI) [µM]	Kd (VSL12 peptide [3]) [nM]	koff (VSL12 peptide [3]) [s⁻¹]	kon (VSL12 peptide [3]) [M⁻¹ s⁻¹]	Kd (VSL12 peptide [4]) [nM]	Binder
3420	4000	4.03	24.9	–	–	–	–	B1
–	–	–	–	647	0.137	212000	562	B2
